Experimental findings from paper PMC3622243 are described below.

In general, Kd refers to the concentration at which binding is half-saturated. Read a low Kd as higher affinity.

The target of assay [1] is c67s mutant of HLA-B*2705 expressed by transfected LBL.721.221 cells (human). The experiment in a line: flow cytometry on cells. In general terms: Flow cytometry measures light scatter and fluorescence of single cells or particles in a stream.
Assay [2] has as its target HLA-B*2705 expressed by transfected LBL.721.221 cells (human). The experiment in a line: flow cytometry on cells.
Assay [3] addresses HLA-B35 expressed by transfected LBL.721.221 cells (human). As to the kind of experiment: flow cytometry on cells.
Assay [4] has as its target HLA-A3 expressed by transfected LBL.721.221 cells (human). As to the kind of experiment: flow cytometry on cells.
The target in assay [5] is HLA-A2 expressed by transfected LBL.721.221 cells (human). As to the kind of experiment: flow cytometry on cells.
Assay [6] addresses HLA-B27 heterotrimer complexed with the HIV GAG-KK10 L6M escape mutant peptide (human | not stated | HIV). The experiment in a line: SPR.
The target of assay [7] is HLA-B27 free heavy chains generated from immobilised heterotrimers (human). The experiment in a line: SPR.
For assay [8], the target named is HLA-A3 heterotrimer. The experiment in a line: SPR.

Consider “Soluble LILRB2Fc incorporating the D1, D2, D3 and D4 domains of LILRB2 (Fc fusion)”, for which the geometric mean fluorescent intensity in assay [1] was 24; in assay [2], 568; in assay [3] it was 81; in assay [4], 107; in assay [5], 233. Besides, the geometric mean fluorescent intensity after inhibition with HC10 in assay [2] came to 244. In assay [2], this substance registered a geometric mean fluorescent intensity after inhibition with W632 of 161. For the same substance, the geometric mean fluorescent intensity after isotype control MAbs in assay [2] amounted to 489.

For “LILRB2 incorporating the two immunoglobulin-like domains D1 and D2 (domain or fragment)”, the Kd in assay [6] was determined as 16 µM; in assay [7] it was 2600 nM; in assay [8], 25.3 µM.

Consider “LILRB1 incorporating the two immunoglobulin-like domains D1 and D2 (domain or fragment)”, for which the Kd in assay [6] amounted to 3.93 µM.
